Values quoted from earlier work in PMC7761212.

Target: rice hemoglobin (Oryza sativa) (UniProt O04986)

rice hemoglobin, sequence (O04986 whole entry): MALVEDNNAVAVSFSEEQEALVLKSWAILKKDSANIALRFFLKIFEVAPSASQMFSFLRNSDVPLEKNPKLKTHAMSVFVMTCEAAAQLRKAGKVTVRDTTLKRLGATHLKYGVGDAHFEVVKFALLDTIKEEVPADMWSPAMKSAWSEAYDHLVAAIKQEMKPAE

Kd: 80 µM
Substance: rice hemoglobin (from UniProt O04986)
